# ± gives the standard deviation of the averaged measurements.
# Tests used:
# Saccharomyces cerevisiae [1] = experiment: protein stability index of tFT-peptide fusion (C-terminal peptide) (PSI (0-1 scale)); higher = more stable (slower turnover)
# Protocol: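 MPS profiling in S. cerevisiae of the tFT-X12 degron library: putative degron peptides plus stable controls, 12 aa, fused to the C-terminus of a sfGFP-mCherry timer. Cells are FACS-sorted into 8 mCherry/sfGFP bins and deep-sequenced. PSI runs from 0 (unstable) to 1 (stable). Backgrounds are wild type, das1Δ and doa10Δ at 30 °C, and wild type, das1Δ, cdc34-1 and cdc53-1 at 37 °C; 2-3 technical replicates each.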
# Saccharomyces cerevisiae [2] = experiment: as above; conditions: genetic background: wild type; temperature: 30 C
# [3] = genetic background: cdc34-1, temperature: 37 C
# [4] = genetic background: cdc53-1, temperature: 37 C
# [5] = genetic background: das1 deletion, temperature: 30 C
# [6] = genetic background: das1 deletion, temperature: 37 C
# [7] = genetic background: doa10 deletion, temperature: 30 C
# [8] = genetic background: wild type, temperature: 30 C
# [9] = genetic background: wild type, temperature: 37 C
# 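Also: PSI is a weighted mean of sequencing reads over stability bins, variants kept only with over 10 reads, mCherry proximal and sfGFP distal, peptide attached via GGGS linker.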
Sequence,protein stability index (Saccharomyces cerevisiae [1]; [3]),protein stability index (Saccharomyces cerevisiae [1]; [4]),protein stability index (Saccharomyces cerevisiae [1]; [5]),protein stability index (Saccharomyces cerevisiae [1]; [6]),protein stability index (Saccharomyces cerevisiae [1]; [7]),protein stability index (Saccharomyces cerevisiae [1]; [8]),protein stability index (Saccharomyces cerevisiae [1]; [9]),protein stability index (Saccharomyces cerevisiae [2])
ACALRSLPPRPY,0.69 ± 0.035,0.7529 ± 0.0042,0.65 ± 0.024,0.746 ± 0.024,0.68 ± 0.019,0.649 ± 0.021,0.712 ± 0.017,0.188 ± 0.064
ACCGVFFFFFWL,0.403 ± 0.029,0.479 ± 0.018,0.366 ± 0.031,0.414 ± 0.016,0.363 ± 0.0061,0.35 ± 0.02,0.433 ± 0.031,0.404 ± 0.018
ACLVAVWRWVFV,0.276 ± 0.017,0.44 ± 0.037,0.309 ± 0.024,0.475 ± 0.0051,0.0646 ± 0.012,0.0758 ± 0.0066,0.0704 ± 0.0067,0.126 ± 0.024
AFAFLLHRFLLV,0.493 ± 0.058,0.55 ± 0.0057,0.477 ± 0.018,0.584 ± 0.0064,0.103 ± 0.0047,0.11 ± 0.012,0.142 ± 0.011,0.148 ± 0.017
AFRRFLLYCRFI,0.395 ± 0.013,0.378 ± 0.0056,0.503 ± 0.035,0.607 ± 0.015,0.199 ± 0.019,0.148 ± 0.025,0.201 ± 0.029,0.198 ± 0.012
AFYQSGGLVVVV,0.618 ± 0.043,0.617 ± 0.016,0.459 ± 0.034,0.6279 ± 0.0048,0.45 ± 0.016,0.477 ± 0.024,0.591 ± 0.046,–
AIPRWLALLVAH,0.32 ± 0.012,0.381 ± 0.0079,0.29 ± 0.032,0.4508 ± 0.0036,0.13 ± 0.018,0.159 ± 0.022,0.238 ± 0.0066,0.241 ± 0.0097
ALWRAWLRLRIW,0.517 ± 0.054,0.591 ± 0.03,0.582 ± 0.019,0.733 ± 0.016,0.143 ± 0.0041,0.124 ± 0.0037,0.0985 ± 0.012,0.205 ± 0.0025
APPFPPPPARSL,0.644 ± 0.034,0.713 ± 0.0095,0.675 ± 0.019,0.718 ± 0.033,0.694 ± 0.022,0.68 ± 0.017,0.677 ± 0.015,–
AQLVYVITAVRT,0.452 ± 0.017,0.458 ± 0.024,0.333 ± 0.031,0.569 ± 0.026,0.291 ± 0.025,0.315 ± 0.019,0.507 ± 0.029,0.42 ± 0.029
ARLTNYFVEWLS,0.667 ± 0.012,0.757 ± 0.012,0.657 ± 0.0066,0.746 ± 0.012,0.358 ± 0.023,0.383 ± 0.029,0.592 ± 0.012,0.4612 ± 0.00085
ASAYCCMITRLN,0.485 ± 0.09,0.574 ± 0.086,0.629 ± 0.012,0.611 ± 0.047,0.0987 ± 0.011,0.0882 ± 0.026,0.1737 ± 0.00037,0.172 ± 0.042
ASGVFSRLVLVS,0.323 ± 0.0038,0.335 ± 0.016,0.284 ± 0.03,0.4576 ± 0.0023,0.173 ± 0.012,0.201 ± 0.024,0.282 ± 0.0035,0.3097 ± 0.0016
ASPLRLFIPFLF,0.678 ± 0.071,0.76 ± 0.017,0.632 ± 0.034,0.755 ± 0.036,0.192 ± 0.0066,0.211 ± 0.026,0.413 ± 0.0079,0.312 ± 0.058
AWLWCVCWSIMR,0.389 ± 0.017,0.414 ± 0.013,0.317 ± 0.034,0.502 ± 0.024,0.373 ± 0.028,0.323 ± 0.021,0.453 ± 0.0073,0.395 ± 0.025
AYFPSQRVHHLM,0.637 ± 0.046,0.706 ± 0.066,0.661 ± 0.016,0.765 ± 0.013,0.144 ± 0.0018,0.174 ± 0.033,0.374 ± 0.03,0.333 ± 0.017
CACAVPFLLLFF,0.474 ± 0.0077,0.519 ± 0.017,0.374 ± 0.022,0.505 ± 0.0063,0.497 ± 0.028,0.347 ± 0.032,0.494 ± 0.023,0.411 ± 0.025

Sequence,protein stability index (Saccharomyces cerevisiae [1]; [3]),protein stability index (Saccharomyces cerevisiae [1]; [4]),protein stability index (Saccharomyces cerevisiae [1]; [5]),protein stability index (Saccharomyces cerevisiae [1]; [6]),protein stability index (Saccharomyces cerevisiae [1]; [7]),protein stability index (Saccharomyces cerevisiae [1]; [8]),protein stability index (Saccharomyces cerevisiae [1]; [9]),protein stability index (Saccharomyces cerevisiae [2])
CCSRYLSNLCPI,0.674 ± 0.052,0.751 ± 0.036,0.631 ± 0.016,0.7263 ± 0.0048,0.657 ± 0.033,0.648 ± 0.0072,0.726 ± 0.017,0.0813 ± 0.051
CDSRIRKIWSYL,0.836 ± 0.069,0.883 ± 0.019,0.774 ± 0.021,0.834 ± 0.026,0.2666 ± 0.0024,0.284 ± 0.039,0.494 ± 0.0054,0.36 ± 0.0036
CFFPLFLCTAFC,0.465 ± 0.027,0.4713 ± 0.0024,0.394 ± 0.023,0.513 ± 0.011,0.387 ± 0.0062,0.39 ± 0.0053,0.492 ± 0.022,0.425 ± 0.017
CFSVFSVLCFFV,0.575 ± 0.02,0.6301 ± 0.0018,0.532 ± 0.03,0.627 ± 0.015,0.415 ± 0.035,0.414 ± 0.019,0.513 ± 0.0066,0.437 ± 0.029
CFVFYALFGFAV,0.37 ± 0.037,0.463 ± 0.027,0.302 ± 0.036,0.484 ± 0.0052,0.252 ± 0.0068,0.285 ± 0.017,0.431 ± 0.046,0.401 ± 0.013
CLISILLFLCFT,0.439 ± 0.029,0.509 ± 0.074,0.392 ± 0.014,0.459 ± 0.037,0.376 ± 0.021,0.39 ± 0.021,0.446 ± 0.0076,0.4162 ± 0.0015
CLLVCCCFYRNV,0.501 ± 0.043,0.558 ± 0.0066,0.409 ± 0.032,0.586 ± 0.0086,0.371 ± 0.015,0.399 ± 0.025,0.523 ± 0.0091,0.469 ± 0.0069
CLVKIVIFFLFS,0.22 ± 0.011,0.326 ± 0.016,0.217 ± 0.037,0.371 ± 0.0075,0.191 ± 0.012,0.211 ± 0.024,0.34 ± 0.019,0.349 ± 0.035
CNIYVLIIIKKY,0.1831 ± 0.00032,0.298 ± 0.036,0.192 ± 0.026,0.344 ± 0.076,0.157 ± 0.0082,0.164 ± 0.039,0.325 ± 0.049,0.266 ± 0.1
CPPPCPLYMLLC,0.506 ± 0.03,0.614 ± 0.041,0.536 ± 0.03,0.6121 ± 0.0031,0.163 ± 0.017,0.17 ± 0.024,0.171 ± 0.013,0.264 ± 0.025
CRLLYYIPCGLF,0.656 ± 0.02,0.703 ± 0.026,0.534 ± 0.029,0.701 ± 0.035,0.359 ± 0.022,0.403 ± 0.014,0.5973 ± 0.00064,0.49841 ± 0.00044
CRRLCGWLFVCV,0.466 ± 0.024,0.522 ± 0.025,0.387 ± 0.037,0.548 ± 0.014,0.396 ± 0.0074,0.38 ± 0.025,0.513 ± 0.036,0.46 ± 0.0068
CSFELSVCLMLR,0.063 ± 0.0088,0.07758 ± 0.00064,0.133 ± 0.013,0.198 ± 0.016,0.557 ± 0.015,0.107 ± 0.007,0.1855 ± 0.0013,0.188 ± 0.032
CSLRLCVRGAIV,0.667 ± 0.022,0.702 ± 0.021,0.602 ± 0.01,0.71597 ± 0.00049,0.586 ± 0.022,0.606 ± 0.0057,0.675 ± 0.024,0.0268 ± 0.022
CSSSNRRRYFVL,0.603 ± 0.034,0.706 ± 0.027,0.66 ± 0.014,0.724 ± 0.033,0.115 ± 0.022,0.131 ± 0.037,0.191 ± 0.0041,0.187 ± 0.023
CVARWPRPAGSS,0.699 ± 0.035,0.735 ± 0.047,0.655 ± 0.015,0.729 ± 0.0097,0.641 ± 0.017,0.673 ± 0.035,0.715 ± 0.015,0.723 ± 0.026
CVFFPFLGVCYV,0.4206 ± 0.0039,0.43047 ± 8.6e-05,0.333 ± 0.025,0.473 ± 0.0093,0.288 ± 0.01,0.336 ± 0.019,0.451 ± 0.0089,0.425 ± 0.017

# From the supplement of paper PMC10724198
